The values that follow are results of earlier work, collected in publication PMC10366146.

A word on the Kd: it is the equilibrium constant for the complex coming apart.

This series addresses VEGFR2 (Homo sapiens) (UniProt P35968).
UniProt P35968, sequence (P35968 20-1356): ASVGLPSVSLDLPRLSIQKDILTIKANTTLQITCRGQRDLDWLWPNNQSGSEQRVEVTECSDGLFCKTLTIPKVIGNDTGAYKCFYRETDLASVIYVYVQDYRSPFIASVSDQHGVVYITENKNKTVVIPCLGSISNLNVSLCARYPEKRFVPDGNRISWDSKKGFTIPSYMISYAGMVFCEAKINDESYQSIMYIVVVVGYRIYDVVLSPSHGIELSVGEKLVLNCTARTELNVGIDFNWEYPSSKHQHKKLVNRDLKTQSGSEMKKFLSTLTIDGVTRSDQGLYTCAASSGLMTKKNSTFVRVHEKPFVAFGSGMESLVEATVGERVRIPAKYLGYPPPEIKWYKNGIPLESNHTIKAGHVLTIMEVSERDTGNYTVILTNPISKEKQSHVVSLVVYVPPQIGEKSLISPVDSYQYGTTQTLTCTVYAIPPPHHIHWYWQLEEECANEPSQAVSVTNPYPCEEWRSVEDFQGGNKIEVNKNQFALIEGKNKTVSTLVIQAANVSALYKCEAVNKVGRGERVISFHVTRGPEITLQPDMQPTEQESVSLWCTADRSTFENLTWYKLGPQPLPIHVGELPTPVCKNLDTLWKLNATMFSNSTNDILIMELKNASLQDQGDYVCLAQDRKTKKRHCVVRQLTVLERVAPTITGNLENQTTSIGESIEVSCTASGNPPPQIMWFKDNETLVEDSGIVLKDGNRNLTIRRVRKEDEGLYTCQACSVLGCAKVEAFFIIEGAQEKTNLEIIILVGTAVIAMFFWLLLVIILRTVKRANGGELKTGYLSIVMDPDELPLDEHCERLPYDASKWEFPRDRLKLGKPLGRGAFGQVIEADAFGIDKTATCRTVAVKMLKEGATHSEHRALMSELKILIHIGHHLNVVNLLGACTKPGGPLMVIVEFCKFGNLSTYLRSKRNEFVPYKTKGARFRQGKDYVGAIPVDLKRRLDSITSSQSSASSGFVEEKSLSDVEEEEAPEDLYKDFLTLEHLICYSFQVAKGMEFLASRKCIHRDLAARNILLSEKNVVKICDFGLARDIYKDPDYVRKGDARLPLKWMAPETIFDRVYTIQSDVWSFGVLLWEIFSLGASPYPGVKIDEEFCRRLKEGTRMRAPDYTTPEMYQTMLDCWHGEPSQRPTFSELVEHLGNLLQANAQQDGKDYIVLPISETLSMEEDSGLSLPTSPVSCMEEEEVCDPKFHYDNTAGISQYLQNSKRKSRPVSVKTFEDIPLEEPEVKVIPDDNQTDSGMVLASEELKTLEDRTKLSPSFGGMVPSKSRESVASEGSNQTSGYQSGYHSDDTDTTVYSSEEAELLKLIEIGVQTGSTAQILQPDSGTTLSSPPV

On to VEGF121 VEGF121 (from UniProt P15692), for which the Kd is 5.5 nM.
